Measured values published in patent US20250092124A1.

Key:
[1] = biological target: GDF15-HIS (ACROBiosystems, CAT #: GD5-H5149) (human) (UniProt Q99988)
[2] = biological target: GDF15-HIS (ACROBiosystems, CAT #: GD5-H5149) (human) (UniProt Q99988); experiment: cell-based or functional assay
[3] = biological target: GDF15-HIS (ACROBiosystems, CAT #: GD5-H5149) (human) (UniProt Q99988); experiment: ELISA, GDF15-HIS coated
[4] = biological target: GDF15-HIS (ACROBiosystems, CAT #: GD5-H5149) (human) (UniProt Q99988); experiment: BLI (ForteBio Octet), antibody immobilised, GDF15 200-6.25 nM
[5] = biological target: GDF15-mFC protein (human; mouse) (UniProt Q99988); experiment: blocking ELISA as in Example 4, GFRAL-hIgG1 Fc coated (competitor), GDF15-mFC mixed with antibody
[6] = biological target: GDF15-mFC protein (human; mouse) (UniProt Q99988); experiment: competitive ELISA, GFRAL-HIS coated (competitor), GDF15-mFc 0.3 µg/ml pre-incubated with antibody

GDF15-mFC protein (human; mouse), sequence (Q99988 197-308): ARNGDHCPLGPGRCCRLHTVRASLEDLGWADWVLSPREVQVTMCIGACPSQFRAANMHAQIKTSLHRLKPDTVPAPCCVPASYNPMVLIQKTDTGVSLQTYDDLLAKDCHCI
GDF15-HIS (ACROBiosystems, CAT #: GD5-H5149) (human), sequence (Q99988 197-308 limits assumed): as the sequence (Q99988 197-308) above

EC50 (read off the curve) of GDF15-His for luciferase induction with 0.1 µg/ml antibody present [1]: 0.01 mg/L
Bottom (luciferase activity fold, fitted curve), HEK293 SRE-LUC2-cRET-GFRAL reporter cells [2]: 1.07
IC50, luciferase in HEK293 SRE-LUC2-cRET-GFRAL reporter cells stimulated with GDF15-His 5 ng/ml [2]: 0.0321 mg/L
EC50 [3]: 0.096 mg/L
OD450.Max [3]: 1.1 OD450
Kd [4]: < 1 pM
koff [4]: < 1e-07 s⁻¹
kon [4]: 711000 M⁻¹ s⁻¹
IC50 [5]: 0.504 mg/L
OD450.Max [5]: 1.02 OD450
IC50 [6]: 0.504 mg/L
OD450.Max [6]: 1.02 OD450
B1: Ponsegromab (antibody, INN chains, looked up, V domains shown)
VH: QVQLVQSGAEVKKPGSSVKVSCKASGYTFSSYNIDWVRQAPGQGLEWMGGINPIFGTAFYNQKFQGRVTITADESTSTAYMELSSLRSEDTAVYYCAREAITTVGAMDHWGQGTLVTVSS
VL: EIVLTQSPATLSLSPGERATLSCRTSQSVHNYLAWYQQKPGQAPRLLIYDASTRADGIPARFSGSGSGTDFTLTISSLEPEDFAVYYCQQFWSWPWTFGQGTKVEIK
